Results taken from patent US12358954B2, “Capsid-modified rAAV vector compositions and methods therefor” (priority 2012, dated 2025).

System: K562 cells
Experiment: AAV6 transduction of K562 cells after enzyme / inhibitor treatment
Assay type: cell-based, human
Text: More recently, Denard et al. reported that galectin-3-binding protein in human sera agglutinates AAV6 vectors, which results in decreased transduction efficiency of these vectors. […] The identity of the putative receptor for AAV6 vectors in human CD34^+ cells remains elusive, and additional studies are warranted. […] The implication is that AAV6 uses a protein rather than a lipid on K562 cells for binding and entry into these cells. In addition, because AAV6 is known to have evolved from recombination between AAV1 and AAV2, and because AAV2 uses heparan sulfateproteoglycan (HSPG) as the primary cellular receptor, the level of HSPG expression on K562 cells surface was examined by FACS. […] The effect of inhibitors of O-linked and N-linked glycosylation was also evaluated on the transduction efficiency of AAV6 vectors in K562 cells.

B1: Proteinase K: Proteinase K (Sigma-Aldrich Co.) (protein, UniProt P06873 106-384, looked up)
Proteinase K: AAQTNAPWGLARISSTSPGTSTYYYDESAGQGSCVYVIDTGIEASHPEFEGRAQMVKTYYYSSRDGNGHGTHCAGTVGSRTYGVAKKTQLFGVKVLDDNGSGQYSTIIAGMDFVASDKNNRNCPKGVVASLSLGGGYSSSVNSAAARLQSSGVMVAVAAGNNNADARNYSPASEPSVCTVGASDRYDRRSSFSNYGSVLDIFGPGTSILSTWIGGSTRSISGTSMATPHVAGLAAYLMTLGKTTAASACRYIADTANKGDLSNIPFGTVNLLAYNNYQA
- effect on AAV6 vector-mediated transduction of K562 cells: dramatically decrease
